{"source": "paper PMC13287468", "about": "“Newton’s cradle-like allosteric mechanism explains regulatory RsmE RNA binding”", "binders": {"B1": {"name": "hcnA SD (ssRNA)", "RNA": "GGGCUUCACGGAUGAAGCCC", "modifications": "T7 transcript (5' triphosphate expected)"}, "B2": {"name": "4bpSL2 (ssRNA)", "RNA": "GGAUCAAGGACGAUCC", "modifications": "T7 transcript (5' triphosphate expected)"}, "B3": {"name": "SL2 (ssRNA)", "RNA": "GGGCCAUCAAGGACGAUGGUCC", "modifications": "T7 transcript (5' triphosphate expected)"}, "B4": {"name": "hcnA SD RNA (structured_RNA)", "RNA": "GGGCUUCACGGAUGAAGCCC"}, "B5": {"name": "hcnA SD (ssRNA)", "RNA 1": "GGGCUUCACGGAUGAAGCCC", "RNA 2": "GGGCCAUCAAGGACGAUGGUCC", "modifications": "T7 transcript (5' triphosphate expected)"}, "B6": {"name": "SL2 RNA (RsmZ) (structured_RNA)", "RNA": "GGGCCAUCAAGGACGAUGGUCC"}, "B7": {"name": "4bpSL2 RNA (structured_RNA)", "RNA": "GGAUCAAGGACGAUCC"}}, "key": {"[1]": {"molecular_target": "T1, RsmE P64W (Pseudomonas protegens, UniProt P0DPC3, P64W)", "T1 sequence": "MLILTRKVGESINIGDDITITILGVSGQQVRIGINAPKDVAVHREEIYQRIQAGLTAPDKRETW", "assay": "ITC; 50 mM potassium phosphate pH 7.2, 30 mM NaCl, 298 K; 10 uM monomer in the cell", "conditions": "tags: C-His6 (kept); chain copies: 2; hairpin; 1 RNA per protein dimer"}, "[2]": {"molecular_target": "T1, RsmE P64W", "assay": "ITC; other site of the dimer holds one hcnA RNA; 50 mM potassium phosphate pH 7.2, 30 mM NaCl, 298 K; 10 uM monomer in the cell", "conditions": "tags: C-His6 (kept); chain copies: 2; hairpin; 2 copies of the RNA per protein dimer, value for the second"}, "[3]": {"molecular_target": "T1, RsmE P64W", "assay": "ITC; other site of the dimer holds one 4bpSL2 RNA; 50 mM potassium phosphate pH 7.2, 30 mM NaCl, 298 K; 10 uM monomer in the cell", "conditions": "tags: C-His6 (kept); chain copies: 2; hairpin; 2 copies of the RNA per protein dimer, value for the second"}, "[4]": {"molecular_target": "T1, RsmE P64W", "assay": "ITC; other site of the dimer holds one SL2 RNA; 50 mM potassium phosphate pH 7.2, 30 mM NaCl, 298 K; 10 uM monomer in the cell", "conditions": "tags: C-His6 (kept), chain copies: 2"}, "[5]": {"molecular_target": "T1, RsmE P64W", "assay": "ITC; other site of the dimer holds one SL2 RNA; 50 mM potassium phosphate pH 7.2, 300 mM NaCl, 298 K; 10 uM monomer in the cell", "conditions": "tags: C-His6 (kept); chain copies: 2; hairpin; 2 copies of the RNA per protein dimer, value for the second"}, "[6]": {"molecular_target": "T1, RsmE P64W", "assay": "ITC; 50 mM potassium phosphate pH 7.2, 100 mM NaCl, 298 K; 10 uM monomer in the cell", "conditions": "tags: C-His6 (kept); chain copies: 2; hairpin; 1 RNA per protein dimer"}, "[7]": {"molecular_target": "T1, RsmE P64W", "assay": "ITC; 50 mM potassium phosphate pH 7.2, 300 mM NaCl, 298 K; 10 uM monomer in the cell", "conditions": "tags: C-His6 (kept); chain copies: 2; hairpin; 1 RNA per protein dimer"}, "[8]": {"molecular_target": "T1, RsmE P64W", "assay": "ITC; other site of the dimer holds one SL2 RNA; 50 mM potassium phosphate pH 7.2, 10 mM NaCl, 298 K; 10 uM monomer in the cell", "conditions": "tags: C-His6 (kept); chain copies: 2; hairpin; 2 copies of the RNA per protein dimer, value for the second"}, "[9]": {"molecular_target": "T1, RsmE P64W", "assay": "ITC; 50 mM potassium phosphate pH 7.2, 10 mM NaCl, 298 K; 10 uM monomer in the cell", "conditions": "tags: C-His6 (kept); chain copies: 2; hairpin; 1 RNA per protein dimer"}, "[10]": {"molecular_target": "T1, RsmE P64W", "assay": "ITC; other site of the dimer holds one SL2 RNA; 50 mM potassium phosphate pH 7.2, 100 mM NaCl, 298 K; 10 uM monomer in the cell", "conditions": "tags: C-His6 (kept); chain copies: 2; hairpin; 2 copies of the RNA per protein dimer, value for the second"}, "[11]": {"molecular_target": "T2, RsmE dimer (P64W, C-terminal His6) (UniProt P0DPC3 1-64, P64W)", "T2 sequence": "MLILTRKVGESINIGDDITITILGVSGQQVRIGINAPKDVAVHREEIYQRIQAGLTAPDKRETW", "assay": "ITC; apo RsmE dimer, first site; 30 mM NaCl, 50 mM potassium phosphate pH 7.2; ITC at 298 K (NaCl varied in Supp. Fig. 8), RNA titrated into 10 uM RsmE monomer, sequential two-site model; NMR at 303/313 K with 3% D2O", "conditions": "protein: recombinant; tags: C-terminal 6xHis; chain copies: 2; hairpin"}, "[12]": {"molecular_target": "T2, RsmE dimer (P64W, C-terminal His6)", "assay": "ITC; first site (Kd1); 30 mM NaCl; text: likely upper bound, true value may be <1 nM; 30 mM NaCl, 50 mM potassium phosphate pH 7.2; ITC at 298 K (NaCl varied in Supp. Fig. 8), RNA titrated into 10 uM RsmE monomer, sequential two-site model; NMR at 303/313 K with 3% D2O", "conditions": "protein: recombinant; tags: C-terminal 6xHis; chain copies: 2; hairpin, hexaloop"}, "[13]": {"molecular_target": "T2, RsmE dimer (P64W, C-terminal His6)", "assay": "NMR; 1:1 semi-holo complex; no minor conformations; 30 mM NaCl, 50 mM potassium phosphate pH 7.2; ITC at 298 K (NaCl varied in Supp. Fig. 8), RNA titrated into 10 uM RsmE monomer, sequential two-site model; NMR at 303/313 K with 3% D2O", "conditions": "protein: recombinant; tags: C-terminal 6xHis; chain copies: 2; hairpin, 4 bp stem"}}, "data": [{"binder": "B1", "values": [{"measurement": "Kd", "setting": "[1]", "result": "8.67 ± 2.02", "unit": "nM"}, {"measurement": "Kd", "setting": "[2]", "result": "218 ± 12.8", "unit": "nM"}]}, {"binder": "B2", "values": [{"measurement": "Kd", "setting": "[1]", "result": "21.6 ± 2.56", "unit": "nM"}, {"measurement": "Kd", "setting": "[3]", "result": "97.2 ± 3.58", "unit": "nM"}]}, {"binder": "B3", "values": [{"measurement": "Kd", "setting": "[1]", "result": "< 1.45", "unit": "nM"}, {"measurement": "Kd", "setting": "[4]; hairpin, 2 copies of the RNA per protein dimer, value for the second", "result": "31.1 ± 2.78", "unit": "nM"}, {"measurement": "Kd", "setting": "[5]", "result": "118 ± 4.14", "unit": "nM"}, {"measurement": "Kd", "setting": "[6]", "result": "5.71 ± 1.35", "unit": "nM"}, {"measurement": "Kd", "setting": "[7]", "result": "15.4 ± 1.51", "unit": "nM"}, {"measurement": "Kd", "setting": "[8]", "result": "22.3 ± 2.06", "unit": "nM"}, {"measurement": "Kd", "setting": "[9]", "result": "< 0.943", "unit": "nM"}, {"measurement": "Kd", "setting": "[10]", "result": "64.2 ± 3.23", "unit": "nM"}]}, {"binder": "B4", "values": [{"measurement": "Kd", "setting": "[11]", "result": "~10", "unit": "nM"}]}, {"binder": "B5", "values": [{"measurement": "Kd", "setting": "[4]; two separate hairpins, one per site", "result": "297 ± 11.4", "unit": "nM"}]}, {"binder": "B6", "values": [{"measurement": "Kd", "setting": "[12]", "result": 1.4, "unit": "nM"}]}, {"binder": "B7", "values": [{"measurement": "binding result", "setting": "[13]", "result": "binds"}]}]}
